Source: patent US20220033483A1 (GUAGNDONG FEIPENG BIOLOGICAL, published 2022)
Where a chain is given by its changes, count along the chain named. Like-named read-outs stand apart in the source and are kept apart here. Blank lines part the entries; values can stand above or below the binder they belong to.

Columns and labels:
[1] = target: T1, cTnI quality control product recombinant protein (human, UniProt P19429 1-210, limits assumed); assay: AMC biosensor, antibody on sensor
T1 construct: the assay paragraphs only say cTnI; also called cardiac troponin I; cTnI antigen
T1 sequence (P19429 whole entry): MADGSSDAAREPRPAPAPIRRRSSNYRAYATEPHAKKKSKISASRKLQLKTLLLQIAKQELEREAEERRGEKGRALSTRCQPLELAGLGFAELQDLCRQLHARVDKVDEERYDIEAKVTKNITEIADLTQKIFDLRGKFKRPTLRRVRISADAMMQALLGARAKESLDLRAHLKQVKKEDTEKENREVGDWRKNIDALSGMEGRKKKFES
Description: (§1) Operating process: it is equilibrated in Buffer 1 (PBST) for 60 s, the antibody is immobilized in an antibody solution for 300 s, incubated in Buffer 2 (PBST) for 180 s, bound in antigen solution for 420 s, dissociated in the Buffer 2 for 1200 s, 10 mM of GLY solution with pH 1.69 and Buffer 3 are used for sensor regeneration, and data is output.

[2] = target: T1, cTnI quality control product …; assay: capture ELISA, antibody 12.346 ng/ml, cTnI 0.15 ug/ml
Description: (§2) After mutation, the antibody activity is detected, 1 μg/ml of goat anti-mouse IgG is diluted with coating solution to coat a microwell plate, 100 μL per well, and overnight at 4 DEG C.; on the next day, it is washed twice with washing solution, and patted dry; blocking solution (20% BSA+80% PBS) is added, 120 μL per well, 37 DEG C., and 1 h, and patted dry; a diluted cTnI monoclonal antibody is added, 100 μL/well, 37 DEG C., and 60 min; liquid in the plate is shaken off, patted dry, and […] of mouse negative blood is added for blocking, 120 μl per well, 37 DEG C., 1 h; liquid in the plate is shaken off, patted dry, a diluted cTnI antigen (0.15 μg/ml) is added, 100 μL per well, 37 DEG C., and 40 min; it is washed for 5 times with the washing solution, and patted dry; another strain of the cTnI monoclonal antibody (1:5K) labeled with HRP is added, 100 μL per well, 37 DEG C., and 30 min; color developing solution A (50 μL/well) is added, color developing solution B (50 μL/well) is added, 10 min; stop solution is added, 50 μL/well; and a OD value is read at 450 nm (refer to 630 nm) on a microplate reader.

[3] = target: T1, cTnI quality control product …; assay: capture ELISA, antibody 111.111 ng/ml, cTnI 0.15 ug/ml
Description: as §2

[4] = target: T1, cTnI quality control product …; assay: AMC biosensor, antibody on sensor; remark: listed apart in the source
Description: as §1

[5] = target: T1, cTnI quality control product …; assay: capture ELISA, antibody 1.372 ng/ml, cTnI 0.15 ug/ml
Description: as §2

[6] = target: T1, cTnI quality control product …; assay: capture ELISA, antibody 333.333 ng/ml, cTnI 0.15 ug/ml
Description: as §2

[7] = target: T1, cTnI quality control product …; assay: capture ELISA, antibody 37.037 ng/ml, cTnI 0.15 ug/ml
Description: as §2

[8] = target: T1, cTnI quality control product …; assay: capture ELISA, antibody 4.115 ng/ml, cTnI 0.15 ug/ml
Description: as §2

[9] = target: T1, cTnI quality control product …; assay: capture ELISA, antibody 1000.000 ng/ml, cTnI 0.15 ug/ml
Description: as §2

[10] = target: T1, cTnI quality control product …; assay: capture ELISA, antibody 0.000 ng/ml (blank), cTnI 0.15 ug/ml
Description: as §2

Kd [1]: 12.9 nM
koff [1]: 0.000368 s⁻¹
kon [1]: 28600 M⁻¹ s⁻¹
OD 450 nm [2]: 0.947 OD
OD 450 nm [3]: 1.88 OD
Kd [4]: 12.9 nM
koff [4]: 0.000368 s⁻¹
kon [4]: 28600 M⁻¹ s⁻¹
OD 450 nm [5]: 0.174 OD
OD 450 nm [6]: 2.01 OD
OD 450 nm [7]: 1.7 OD
OD 450 nm [8]: 0.475 OD
OD 450 nm [9]: 2.1 OD
OD 450 nm [10]: 0.144 OD
B1: Anti-cTnI 7B9 monoclonal antibody (recombinant, Sample 1) (antibody, mouse IgG1, kappa, V domains shown)
VH: QVQLQQSGTELAKPGASVKFSCKASDYTFSTYWMYWIKQRPGQGLEWIGYLNPSSGHTEYNQRFKDKATLTADKSSSTAYMQLNSLTSEDSAVYYCARKYFGPFAMDYWGQGTSVTVSS
VL: EIFLTQSPAIMSASPGEKVTMTCSASTTVSYAHWYQQKSGTSPKRWLYDSSKIASGIPVRFSGSGSGTSYSLTISSMEAEDAATYYCQNWSTQPYTFGGGTKLEIKR
notes: Recombinant mouse antibody expressed in CHO cells; also called WT; Anti-cTnI 7B9 antibody

Kd [1]: 9.45 nM
koff [1]: 0.000181 s⁻¹
kon [1]: 19200 M⁻¹ s⁻¹
B2: Mutation 1-3 (antibody, V domains shown)
VH: B1 VH with D26G, S30T, L51I, S55T, E59D, R63K, A105G
VL: B1 VL with T28S, A32V, L47I, S50T, I53L, N89Q, T92S, Q93N

Kd [1]: 6.07 nM
koff [1]: 8.86e-05 s⁻¹
kon [1]: 14600 M⁻¹ s⁻¹
B3: Mutation 1-56 (antibody, V domains shown)
VH: B1 VH with D26G, S30T, E59D, K99R, F101W, A105G
VL: B1 VL with T28S, A32V, L47I, S50T, N89Q, T92S, Q93N

Kd [1]: 2.32 nM
koff [1]: 6.03e-05 s⁻¹
kon [1]: 26000 M⁻¹ s⁻¹
B4: Mutation 1-6 (antibody, V domains shown)
VH: B1 VH with D26G, S30T, T31S, E59D, K99R, A105G
VL: B1 VL with T27S, A32V, S50T, I53L, N89Q, Q93N

Kd [1]: 2.92 nM
koff [1]: 4.05e-05 s⁻¹
kon [1]: 13900 M⁻¹ s⁻¹
B5: Mutation 1-7 (antibody, V domains shown)
VH: B1 VH with D26G, S30T, S55T, E59D, R63K, K99R, F101Y, A105G
VL: B1 VL with T28S, A32V, S50T, I53L, N89Q, Q93N

Kd [1]: 7.96 nM
koff [1]: 0.000302 s⁻¹
kon [1]: 37900 M⁻¹ s⁻¹
B6: Mutation 1-2 (antibody, V domains shown)
VH: B1 VH with D26G, S30T, T31S, L51I, E59D, K99R, F101W, A105G
VL: B1 VL with T27S, A32V, S50T, I53L, N89Q, T92S

Kd [1]: 1.01 nM
koff [1]: 1.38e-05 s⁻¹
kon [1]: 13600 M⁻¹ s⁻¹
B7: Mutation 1-52 (antibody, V domains shown)
VH: B1 VH with D26G, S30T, L51I, S55T, E59D, K99R, F101W, A105G
VL: B1 VL with T28S, A32V, L47I, S50T, N89Q, T92S, Q93N

Kd [1]: 0.81 nM
koff [1]: 2.15e-05 s⁻¹
kon [1]: 26500 M⁻¹ s⁻¹
B8: Mutation 1-51 (antibody, V domains shown)
VH: B1 VH with D26G, S30T, L51I, S55T, E59D, K99R, F101Y, A105G
VL: B1 VL with T28S, A32V, L47I, S50T, N89Q, T92S

Kd [1]: 6.6 nM
koff [1]: 8.58e-05 s⁻¹
kon [1]: 13000 M⁻¹ s⁻¹
B9: Mutation 1-48 (antibody, V domains shown)
VH: B1 VH with D26G, T31S, S55T, E59D, K99R, F101W, A105G
VL: B1 VL with T27S, A32V, L47I, S50T, N89Q, Q93N

Kd [1]: 1.09 nM
koff [1]: 1.11e-05 s⁻¹
kon [1]: 10200 M⁻¹ s⁻¹
B10: Mutation 1-50 (antibody, V domains shown)
VH: B1 VH with D26G, S30T, T31S, S55T, E59D, R63K, K99R, F101W, A105G
VL: B1 VL with A32V, L47I, S50T, I53L, N89Q, T92S, Q93N

Kd [1]: 0.238 nM
koff [1]: 1.17e-05 s⁻¹
kon [1]: 49300 M⁻¹ s⁻¹
B11: Mutation 1-5 (antibody, V domains shown)
VH: B1 VH with D26G, T31S, S55T, E59D, R63K, F101W, A105G
VL: B1 VL with T27S, T28S, A32V, L47I, S50T, N89Q, Q93N

Kd [1]: 5.94 nM
koff [1]: 0.000195 s⁻¹
kon [1]: 32800 M⁻¹ s⁻¹
B12: Mutation 1-49 (antibody, V domains shown)
VH: B1 VH with D26G, S30T, E59D, R63K, A105G
VL: B1 VL with T28S, A32V, S50T, I53L, N89Q, T92S

Kd [1]: 0.221 nM
koff [1]: 4.49e-06 s⁻¹
kon [1]: 20300 M⁻¹ s⁻¹
B13: Mutation 1-11 (antibody, V domains shown)
VH: B1 VH with D26G, S30T, T31S, L51I, E59D, R63K, F101W, A105G
VL: B1 VL with T28S, A32V, L47I, S50T, I53L, N89Q

Kd [1]: 9.96 nM
koff [1]: 0.000263 s⁻¹
kon [1]: 26400 M⁻¹ s⁻¹
OD 450 nm [2]: 2.34 OD
OD 450 nm [3]: 2.4 OD
Kd [4]: 9.96 nM
koff [4]: 0.000263 s⁻¹
kon [4]: 26400 M⁻¹ s⁻¹
OD 450 nm [5]: 1.03 OD
OD 450 nm [6]: 2.4 OD
OD 450 nm [7]: 2.36 OD
OD 450 nm [8]: 1.97 OD
OD 450 nm [9]: 2.34 OD
OD 450 nm [10]: 0.193 OD
B14: Mutation 1 (antibody, V domains shown)
VH: B1 VH with D26G, E59D, A105G
VL: B1 VL with A32V, S50T, N89Q
notes: other CDR sites as WT

OD 450 nm [2]: 1.61 OD
OD 450 nm [3]: 2.17 OD
Kd [4]: 15.6 nM
koff [4]: 0.000434 s⁻¹
kon [4]: 27800 M⁻¹ s⁻¹
OD 450 nm [5]: 0.528 OD
OD 450 nm [6]: 2.3 OD
OD 450 nm [7]: 2.13 OD
OD 450 nm [8]: 1.15 OD
OD 450 nm [9]: 2.33 OD
OD 450 nm [10]: 0.224 OD
B15: Mutation 2 (antibody, V domains shown)
VH: B1 VH with D26L, A105I
VL: B1 VL with S50T, N89V
notes: other CDR sites as WT

OD 450 nm [3]: 0.374 OD
Kd [4]: 56700 nM
koff [4]: 0.0371 s⁻¹
kon [4]: 654 M⁻¹ s⁻¹
OD 450 nm [6]: 0.678 OD
OD 450 nm [9]: 1.28 OD
B16: Mutation 4 (antibody, V domains shown)
VH: B1 VH with D26N, E59K, A105N
VL: B1 VL with A32E, S50Q, N89V
notes: other CDR sites as WT

OD 450 nm [2]: 1.41 OD
OD 450 nm [3]: 2 OD
Kd [4]: 17.8 nM
koff [4]: 0.000481 s⁻¹
kon [4]: 27000 M⁻¹ s⁻¹
OD 450 nm [5]: 0.367 OD
OD 450 nm [6]: 2.11 OD
OD 450 nm [7]: 2 OD
OD 450 nm [8]: 0.978 OD
OD 450 nm [9]: 2.21 OD
OD 450 nm [10]: 0.204 OD
B17: Mutation 3 (antibody, V domains shown)
VH: B1 VH with D26I, E59G, A105V
VL: B1 VL with A32I, S50T, N89R
notes: other CDR sites as WT

OD 450 nm [3]: 0.247 OD
Kd [4]: 978000 nM
koff [4]: 0.687 s⁻¹
kon [4]: 702 M⁻¹ s⁻¹
OD 450 nm [6]: 0.514 OD
OD 450 nm [9]: 1.12 OD
B18: Mutation 5 (antibody, V domains shown)
VH: B1 VH with D26W, E59V, A105S
VL: B1 VL with A32S, S50Y, N89E
notes: other CDR sites as WT
